This is an account of results in PMC3093366, “A Component of the Xanthomonadaceae Type IV Secretion System Combines a VirB7 Motif with a N0 Domain Found in Outer Membrane Transport Proteins” (PLoS Pathogens, 2011).

Assay [1] concerns the target VirB7_(XAC2622_24–139) (Xanthomonas citri subsp. citri strain 306). In words: NMR 15N relaxation (rotational correlation time); 15N T1 and T2 of 15N-VirB7_(XAC2622_24–139) at 800 µM, 40°C, 600 MHz.
Another assay has as its target T1, VirB7_(XAC2622_51–134) (Xanthomonas citri subsp. citri strain …, UniProt A0AAI7ZGD2 51-134, 15N isotope labelled in the NMR titration).
T1 construct: also called VirB7_(XAC2622) globular domain; N0 domain; source: E. coli BL21(DE3)RP or BL21(DE3)Star, purified (Q-sepharose, Superdex 75)
T1 sequence: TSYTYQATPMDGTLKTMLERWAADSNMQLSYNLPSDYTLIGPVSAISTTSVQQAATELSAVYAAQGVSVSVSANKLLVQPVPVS
The experiment in a line: NMR titration; 15N-labeled VirB7_(XAC2622_51–134) (200 µM) titrated with unlabeled VirB7_(XAC2622_38–52) peptide (0 to 740 µM); 15N-HSQC. Conditions: both partners purified.

The target in the next assay is T2, VirB9_(XAC2620_34–255) (Xanthomonas citri subsp. citri strain …, UniProt A0AAI8ESY0 34-255).
T2 construct: also called full length VirB9; full-length VirB9_(XAC2620) minus the first 33 residues
T2 sequence: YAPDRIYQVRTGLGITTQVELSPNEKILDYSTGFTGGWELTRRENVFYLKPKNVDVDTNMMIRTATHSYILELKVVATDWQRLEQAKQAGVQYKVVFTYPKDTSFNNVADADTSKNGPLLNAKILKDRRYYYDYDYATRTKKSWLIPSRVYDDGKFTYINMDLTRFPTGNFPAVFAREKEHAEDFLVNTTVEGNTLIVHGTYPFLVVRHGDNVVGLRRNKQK
The experiment in a line: other fluorescence titration; intrinsic fluorescence; 0.1 µM aliquots of VirB7_(XAC2622_24–139_His) added to 1 µM VirB9_(XAC2620_34–255) up to 2.2 µM; 5 mM sodium acetate pH 5.0, 25°C, excitation 280 nm, emission 334–342 nm. Particulars: both partners purified.

The stoichiometry N is a count of units in the complex or per binding partner. With “VirB7_(XAC2622_24–139) (from UniProt A0AAI7ZGD2 24-139) (domain or fragment)”, in assay [1], the stoichiometry N stood at 2.

B1: VirB7_(XAC2622_38–52) (peptide)
peptide: NHFDEAPTEIPLYTS
notes: also called unlabeled peptide encompassing residues 38–52 from the N-terminal region; source: synthetic peptide, bought: EZBiolab
In the case of B1, the binding result with VirB7_(XAC2622_51–134) is “binds”.

B2: VirB7_(XAC2622_24–139_His) (domain or fragment)
chain: TKPAPDFGGRWKHVNHFDEAPTEIPLYTSYTYQATPMDGTLKTMLERWAADSNMQLSYNLPSDYTLIGPVSAISTTSVQQAATELSAVYAAQGVSVSVSANKLLVQPVPVSSGAKL
notes: Form with the pET28a N-terminal His-tag not removed; used in the fluorescence titration; not shown: His-tag, N-terminal, kept
The term Kd denotes the free concentration of one partner at which half of the binding sites on the other are occupied at equilibrium, for simple one-to-one binding. The low end stands for a tighter complex, the high end for a looser complex. Regarding B2, in the assay with VirB9_(XAC2620_34–255), the Kd is about 40 nM and the “stoichiometry N” value was 1 VirB7:VirB9.
